The target of assay [1] is human norovirus HuNoV (GII.4), virus from a positive stool sample (human norovirus GII.4). The assay is described as follows: SPR. On the technique in general: SPR reads the build-up and loss of mass on a sensor chip optically.
Assay [2] addresses viral hemorrhagic septicemia virus (VHSV) genotype IVa. Description: SPR.
The target of assay [3] is human norovirus HuNoV (GII.4), virus from a positive stool sample (human norovirus GII.4). The assay is described as follows: BLI. In general terms: In BLI a coated tip is dipped into the sample, and binding shifts an interference pattern.
Assay [4] concerns the target concanavalin A (Con A) isolated from Canavalia ensiformis (Jack bean) (Canavalia ensiformis). The assay is described as follows: capture on a column of Con A-immobilised polyacrylate beads.
For assay [5] the target is unchanged. Described as above. This is another data set of the same source.

pKd: −log10 of the molar value. Read-outs that look alike come from different tables or passages of the source.

Consider “concanavalin A (Con A) isolated from Canavalia ensiformis (Jack bean) (natural protein)”, for which the negative logarithm of the Kd (pKd) (usually −log10 of the Kd, conventionally taken in molar units) in assay [1] was 7.15; in assay [2], 6.15. In assay [3], the association, fold over the commercial HuNoV antibody is 10 fold. As to “human norovirus HuNoV (GII.4), virus from a positive stool sample (complex)”, the virus recovery (%) in assay [4] was determined as 90.6%. In assay [5], this substance had a HuNoV recovery (%) from lettuce of 89.5%, a HuNoV recovery (%) from milk of 60.8%, a HuNoV recovery (%) from strawberry of 70.8% and a virus recovery (%) greater than 90%. Turning to “human norovirus HuNoV GI.3, virus from a positive stool sample (complex)”, the virus recovery (%) in assay [4] turned out to be 68.5%. Still for that read-out and setting: the value for “human norovirus HuNoV GI.8, virus from a positive stool sample (complex)” was 56.2%; that for “human norovirus HuNoV GII.2, virus from a positive stool sample (complex)” was 85.2%.

The substance “human norovirus HuNoV GII.6, virus from a positive stool sample (complex)” had a virus recovery (%) in assay [4] of 41.8%. The same measure, in the same setting: the value for “human norovirus HuNoV GII.8, virus from a positive stool sample (complex)” was 77.8%; that for “human norovirus HuNoV GII.17, virus from a positive stool sample (complex)” was 61.4%.

The values are drawn from publication PMC7112440.
